The labels stand for the following.
B1: MIA2 (parent)
chain: NSISSDKEATVPCTEILTEKKDTI
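Further: lentivirally expressed fusions sorted by FACS into six bins by GFP to DsRed ratio, PSI derived from sequencing read proportions per bin multiplied by bin number.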

In this data set the parent is B1. The data set is described as follows: protein stability index of a GFP-peptide fusion (GPS, HEK-293T) (PSI 1-6); higher = more stable. The following applies: c terminus: a fixed tail appended.
Turning to SSISSDKEATVPCTEILTEKKDTI [N1S], the protein stability index stood at 5.62.
Then QSISSDKEATVPCTEILTEKKDTI [N1Q], with 5.44; and ESISSDKEATVPCTEILTEKKDTI [N1E], with 5.73.
With ISISSDKEATVPCTEILTEKKDTI [N1I], the protein stability index came out at 4.79.
Then GSISSDKEATVPCTEILTEKKDTI [N1G], with 5.24.
For the variant TSISSDKEATVPCTEILTEKKDTI [N1T], the protein stability index worked out at 5.05.
Then VSISSDKEATVPCTEILTEKKDTI [N1V], with 5; and KSISSDKEATVPCTEILTEKKDTI [N1K], with 5.76; and WSISSDKEATVPCTEILTEKKDTI [N1W], with 4.89.
As to PSISSDKEATVPCTEILTEKKDTI [N1P], the protein stability index was 5.68.
Then HSISSDKEATVPCTEILTEKKDTI [N1H], with 5.44; and MSISSDKEATVPCTEILTEKKDTI [N1M], with 5.33; and DSISSDKEATVPCTEILTEKKDTI [N1D], with 5.25.
For the variant FSISSDKEATVPCTEILTEKKDTI [N1F], the protein stability index turned out to be 4.77.
Then ASISSDKEATVPCTEILTEKKDTI [N1A], with 5.42; and YSISSDKEATVPCTEILTEKKDTI [N1Y], with 4.81; and LSISSDKEATVPCTEILTEKKDTI [N1L], with 5.09.
For RSISSDKEATVPCTEILTEKKDTI [N1R], the protein stability index is 5.48.
Then CSISSDKEATVPCTEILTEKKDTI [N1C], with 5.27; and NSIDSDKEATVPCTEILTEKKDTI [S4D], with 5.54.
Turning to NSIRSDKEATVPCTEILTEKKDTI [S4R], the protein stability index came to 5.35.
Then NSICSDKEATVPCTEILTEKKDTI [S4C], with 5.67; and NSIQSDKEATVPCTEILTEKKDTI [S4Q], with 5.63.
Regarding NSIPSDKEATVPCTEILTEKKDTI [S4P], the protein stability index amounted to 5.24.
On to NSIASDKEATVPCTEILTEKKDTI [S4A], for which the protein stability index is 5.41.
Then NSIFSDKEATVPCTEILTEKKDTI [S4F], with 4.76.
Then NSINSDKEATVPCTEILTEKKDTI [S4N], with 5.18; and NSIMSDKEATVPCTEILTEKKDTI [S4M], with 5.43.
Turning to NSIHSDKEATVPCTEILTEKKDTI [S4H], the protein stability index amounted to 5.5.
Regarding NSIGSDKEATVPCTEILTEKKDTI [S4G], the protein stability index turned out to be 4.98.
In the case of NSIISDKEATVPCTEILTEKKDTI [S4I], the protein stability index was found to be 4.68.
Then NSIWSDKEATVPCTEILTEKKDTI [S4W], with 5.11; and NSIYSDKEATVPCTEILTEKKDTI [S4Y], with 5.44.
Then NSILSDKEATVPCTEILTEKKDTI [S4L], with 5.21.
For the variant NSIESDKEATVPCTEILTEKKDTI [S4E], the protein stability index stood at 5.68.
Take NSITSDKEATVPCTEILTEKKDTI [S4T]: the protein stability index is 5.25.
Then NSIVSDKEATVPCTEILTEKKDTI [S4V], with 5.32; and NSIKSDKEATVPCTEILTEKKDTI [S4K], with 5.29; and NSASSDKEATVPCTEILTEKKDTI [I3A], with 5.61.
In the case of NSHSSDKEATVPCTEILTEKKDTI [I3H], the protein stability index was found to be 5.43.
On to NSTSSDKEATVPCTEILTEKKDTI [I3T], for which the protein stability index stood at 4.68.
Then NSFSSDKEATVPCTEILTEKKDTI [I3F], with 5.38.
For NSLSSDKEATVPCTEILTEKKDTI [I3L], the protein stability index stood at 5.02.
Then NSCSSDKEATVPCTEILTEKKDTI [I3C], with 5.33; and NSDSSDKEATVPCTEILTEKKDTI [I3D], with 5.44; and NSESSDKEATVPCTEILTEKKDTI [I3E], with 5.51.
With NSQSSDKEATVPCTEILTEKKDTI [I3Q], the protein stability index came to 5.6.
Then NSMSSDKEATVPCTEILTEKKDTI [I3M], with 5.45; and NSRSSDKEATVPCTEILTEKKDTI [I3R], with 5.7.
In the case of NSYSSDKEATVPCTEILTEKKDTI [I3Y], the protein stability index was 5.58.
Regarding NSKSSDKEATVPCTEILTEKKDTI [I3K], the protein stability index was 5.71.
Then NSWSSDKEATVPCTEILTEKKDTI [I3W], with 5.52; and NSGSSDKEATVPCTEILTEKKDTI [I3G], with 5.54.
Then NSPSSDKEATVPCTEILTEKKDTI [I3P], with 5.36; and NSVSSDKEATVPCTEILTEKKDTI [I3V], with 5.45.
Then NSSSSDKEATVPCTEILTEKKDTI [I3S], with 5.42.
With NSNSSDKEATVPCTEILTEKKDTI [I3N], the protein stability index was determined as 5.7.
As to NAISSDKEATVPCTEILTEKKDTI [S2A], the protein stability index is 5.52.
For the variant NCISSDKEATVPCTEILTEKKDTI [S2C], the protein stability index was determined as 5.27.
Then NGISSDKEATVPCTEILTEKKDTI [S2G], with 5.37; and NPISSDKEATVPCTEILTEKKDTI [S2P], with 5.31; and NMISSDKEATVPCTEILTEKKDTI [S2M], with 5.54.
Take NVISSDKEATVPCTEILTEKKDTI [S2V]: the protein stability index was 5.46.
Take NRISSDKEATVPCTEILTEKKDTI [S2R]: the protein stability index was found to be 5.26.
Turning to NNISSDKEATVPCTEILTEKKDTI [S2N], the protein stability index turned out to be 5.66.
Consider NQISSDKEATVPCTEILTEKKDTI [S2Q], for which the protein stability index came out at 5.33.
Then NYISSDKEATVPCTEILTEKKDTI [S2Y], with 4.49; and NHISSDKEATVPCTEILTEKKDTI [S2H], with 5.09.
Then NEISSDKEATVPCTEILTEKKDTI [S2E], with 5.67; and NWISSDKEATVPCTEILTEKKDTI [S2W], with 5.05.
Then NDISSDKEATVPCTEILTEKKDTI [S2D], with 5.59.
Take NKISSDKEATVPCTEILTEKKDTI [S2K]: the protein stability index was found to be 5.19.
On to NTISSDKEATVPCTEILTEKKDTI [S2T], for which the protein stability index came to 5.1.
Then NLISSDKEATVPCTEILTEKKDTI [S2L], with 5.37; and NFISSDKEATVPCTEILTEKKDTI [S2F], with 5.37.
For NIISSDKEATVPCTEILTEKKDTI [S2I], the protein stability index was found to be 5.32.
Then NSISSDKEETVPCTEILTEKKDTI [A9E], with 5.28; and NSISSDKEITVPCTEILTEKKDTI [A9I], with 5.3; and NSISSDKEHTVPCTEILTEKKDTI [A9H], with 5.32.
With NSISSDKECTVPCTEILTEKKDTI [A9C], the protein stability index worked out at 4.71.
Consider NSISSDKEFTVPCTEILTEKKDTI [A9F], for which the protein stability index worked out at 5.36.
On to NSISSDKELTVPCTEILTEKKDTI [A9L], for which the protein stability index stood at 5.32.
For NSISSDKEKTVPCTEILTEKKDTI [A9K], the protein stability index came out at 5.47.
Then NSISSDKEDTVPCTEILTEKKDTI [A9D], with 5.11.
Then NSISSDKEGTVPCTEILTEKKDTI [A9G], with 5.42.
Then NSISSDYEATVPCTEILTEKKDTI [K7Y], with 5.17.
On to NSISSDMEATVPCTEILTEKKDTI [K7M], for which the protein stability index was found to be 4.95.
Then NSISSDNEATVPCTEILTEKKDTI [K7N], with 5.51; and NSISSDEEATVPCTEILTEKKDTI [K7E], with 5.21; and NSISSDQEATVPCTEILTEKKDTI [K7Q], with 5.25.
Then NSISSDDEATVPCTEILTEKKDTI [K7D], with 5.4; and NSISSDAEATVPCTEILTEKKDTI [K7A], with 5.07; and NSISSDVEATVPCTEILTEKKDTI [K7V], with 4.95.
Then NSISSDLEATVPCTEILTEKKDTI [K7L], with 5.52.

The values are drawn from the supplement of paper PMC10567573.
